Several values for one entry are separate records, joined by “and”; a condition that tells them apart may be missing. Equal values may be shown once.
Substrate: NC(=O)c1ccc[n+]([C@@H]2O[C@H](COP(=O)([O-])OP(=O)(O)OC[C@H]3O[C@@H](n4cnc5c(N)ncnc54)[C@H](O)[C@@H]3O)[C@@H](O)[C@H]2O)c1
Experiment: purified protein, by the assay type
Details: pH 7.25, 30.0 °C

B1: PtxD (Stutzerimonas stutzeri) (protein)
chain: MLPKLVITHRVHDEILQLLAPHCELMTNQTDSTLTREEILRRCRDAQAMMAFMPDRVDADFLQACPELRVVGCALKGFDNFDVDACTARGVWLTFVPDLLTVPTAELAIGLAVGLGRHLRAADAFVRSGEFQGWQPQFYGTGLDNATVGILGMGAIGLAMADRLQGWGATLQYHEAKALDTQTEQRLGLRQVACSELFASSDFILLALPLNADTQHLVNAELLALVRPGALLVNPCRGSVVDEAAVLAALERGQLGGYAADVFEMEDWARADRPRLIDPALLAHPNTLFTPHIGSAVRAVRLEIERCAAQNIIQVLAGARPINAANRLPKAEPAAC
Km (other: Table 4, NAP as A, fit to Equilibrium ordered mechanism): 4520 µM | Km (other: Table 4, NAP as A, fit to Pingpong mechanism): 12800 µM | Km (other: substrates of PtxD): 54.6 ± 6.7 µM and 50 µM
